Assay results published in patent publication US9073974B2, “RGD-containing cyclic peptides” (The Regents of the University of California, priority 2009, dated 2015).
Where two headings read alike, the source gives them in different places. One block for each molecule: values may come before it. Bridge positions count the residues as written; N and C are the ends. Square brackets hold non-standard residues; d marks the D form. Primed or numbered codes have the meaning given here. Ends that are not written are not given here. Peptide text beside a SMILES is read from it. * marks the point of attachment. Ebes(3) = 2,2'-ethylenedioxy bis(ethylamine) monosuccinamide, NCCOCCOCCNC(=O)CCC(=O)*; d1Nal = N[C@H](Cc1cccc2ccccc12)C(=O)O; NMeR = CN[C@@H](CCCNC(=N)N)C(=O)O; d(αMeV) = CC(C)[C@@](C)(N)C(=O)O; dNMeV = CN[C@@H](C(=O)O)C(C)C; Isobutyryl = CC(C)C(=O)*

Experiments:
αvβ3 integrin [1] = target: αvβ3 integrin (Homo sapiens, UniProt P05106+P06756); assay: Inhibition of FITC-Echistatin binding to αvβ3-K562 cells (flow cytometry); parameters: expressed in transfected cells; host or cells: K562 (gift of Dr. Yoshikazu Takada, UC Davis); conditions: for binding affinity compared with LXW7 or the Arg parent, in words: LXW1-8 series
αvβ3 integrin (Homo sapiens, UniProt P05106+P06756), sequence (P06756 31-889 limits assumed): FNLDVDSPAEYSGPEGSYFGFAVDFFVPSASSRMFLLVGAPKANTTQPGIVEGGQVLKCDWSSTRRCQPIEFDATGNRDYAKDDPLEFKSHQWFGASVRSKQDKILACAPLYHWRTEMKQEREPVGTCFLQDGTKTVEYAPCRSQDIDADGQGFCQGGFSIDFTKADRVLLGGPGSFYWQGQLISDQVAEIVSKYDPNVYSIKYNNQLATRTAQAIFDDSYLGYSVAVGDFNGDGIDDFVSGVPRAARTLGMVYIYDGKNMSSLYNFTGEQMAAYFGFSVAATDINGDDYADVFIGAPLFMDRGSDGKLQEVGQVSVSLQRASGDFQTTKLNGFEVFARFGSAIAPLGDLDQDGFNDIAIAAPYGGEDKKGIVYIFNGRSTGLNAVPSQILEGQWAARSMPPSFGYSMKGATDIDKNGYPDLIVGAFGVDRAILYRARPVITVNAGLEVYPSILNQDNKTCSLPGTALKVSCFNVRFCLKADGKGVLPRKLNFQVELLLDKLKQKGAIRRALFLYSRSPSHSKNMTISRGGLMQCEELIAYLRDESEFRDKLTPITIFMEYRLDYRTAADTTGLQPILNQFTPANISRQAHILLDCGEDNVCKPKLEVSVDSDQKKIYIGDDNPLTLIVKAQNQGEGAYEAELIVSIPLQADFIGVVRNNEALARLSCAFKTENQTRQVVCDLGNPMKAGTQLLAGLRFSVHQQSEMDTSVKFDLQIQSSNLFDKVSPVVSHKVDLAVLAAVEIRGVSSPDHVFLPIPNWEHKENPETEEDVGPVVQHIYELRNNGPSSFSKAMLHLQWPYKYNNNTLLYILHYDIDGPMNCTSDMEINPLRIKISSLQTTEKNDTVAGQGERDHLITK
αvβ3 integrin (Homo sapiens, UniProt P05106+P06756), sequence (P06756 891-1048 partner limits assumed): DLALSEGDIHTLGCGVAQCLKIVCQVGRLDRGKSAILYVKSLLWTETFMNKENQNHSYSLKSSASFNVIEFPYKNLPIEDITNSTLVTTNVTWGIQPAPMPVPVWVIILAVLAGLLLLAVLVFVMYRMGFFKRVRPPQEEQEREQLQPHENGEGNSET
αvβ3 integrin (Homo sapiens, UniProt P05106+P06756), sequence (P05106 27-788): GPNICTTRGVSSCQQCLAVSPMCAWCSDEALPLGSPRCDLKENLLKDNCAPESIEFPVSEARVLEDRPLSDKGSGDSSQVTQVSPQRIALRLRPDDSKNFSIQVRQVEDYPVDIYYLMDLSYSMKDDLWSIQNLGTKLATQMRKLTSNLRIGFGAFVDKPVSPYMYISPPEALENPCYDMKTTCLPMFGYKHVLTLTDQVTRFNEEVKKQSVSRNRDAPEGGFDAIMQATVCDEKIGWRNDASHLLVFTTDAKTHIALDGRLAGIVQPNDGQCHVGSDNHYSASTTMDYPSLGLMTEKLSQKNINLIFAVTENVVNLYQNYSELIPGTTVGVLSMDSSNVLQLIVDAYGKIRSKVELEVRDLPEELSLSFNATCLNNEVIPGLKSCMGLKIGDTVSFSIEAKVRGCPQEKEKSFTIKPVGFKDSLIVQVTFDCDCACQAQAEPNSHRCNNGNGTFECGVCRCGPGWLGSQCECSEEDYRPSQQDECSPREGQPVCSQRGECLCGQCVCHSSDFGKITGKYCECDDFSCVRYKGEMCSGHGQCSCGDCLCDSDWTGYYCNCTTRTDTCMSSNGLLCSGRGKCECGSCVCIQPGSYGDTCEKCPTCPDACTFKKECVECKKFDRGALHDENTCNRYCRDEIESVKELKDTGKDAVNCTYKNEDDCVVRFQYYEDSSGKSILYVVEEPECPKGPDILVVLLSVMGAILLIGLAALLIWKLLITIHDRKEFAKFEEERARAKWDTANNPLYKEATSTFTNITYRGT
Method: The samples were analyzed with Coulter XL-MCL flow cytometry. The histogram and mean fluorescence intensity (MFI) were determined. The apparent Kd, IC50 were calculated using Graph Prism software (≦www.graphpad.com≧).

U-87 MG xenograft = assay: In vivo and ex vivo near infra red fluorescent imaging, U-87 MG xenograft; parameters: species or system nude mice; conditions: complex of Streptavidin-Cy5.5 with biotinylated peptide, 6 hrs after tail vein injection
Method: Animal studies were performed according to a protocol approved by IACUC of the University of California, Davis.
Animals were placed on a sheet of transparency in different position. […] Images were captured with a CCD camera set at F stop=0, FOV=150, and FP=0. Six hours post injection of imaging complex, the mice were conducted in vivo imaging, then were sacrificed and organs were excised for ex vivo imaging.

αvβ3 integrin [2] = target: T1, αvβ3 integrin (human, UniProt P06756 31-1048; P05106 27-788); assay: flow cytometry, competition with biotinylated LXW7 on αvβ3-K562 cells; +++ = IC50 <1 µM
T1 construct: whole, on cells; Same entry used for αvβ3-K562, U-87 MG and A375M cells; also called αvβ3-K562; αvβ3 transfected K562 cells
T1 sequence (P06756 31-1048, chain 1 of 2): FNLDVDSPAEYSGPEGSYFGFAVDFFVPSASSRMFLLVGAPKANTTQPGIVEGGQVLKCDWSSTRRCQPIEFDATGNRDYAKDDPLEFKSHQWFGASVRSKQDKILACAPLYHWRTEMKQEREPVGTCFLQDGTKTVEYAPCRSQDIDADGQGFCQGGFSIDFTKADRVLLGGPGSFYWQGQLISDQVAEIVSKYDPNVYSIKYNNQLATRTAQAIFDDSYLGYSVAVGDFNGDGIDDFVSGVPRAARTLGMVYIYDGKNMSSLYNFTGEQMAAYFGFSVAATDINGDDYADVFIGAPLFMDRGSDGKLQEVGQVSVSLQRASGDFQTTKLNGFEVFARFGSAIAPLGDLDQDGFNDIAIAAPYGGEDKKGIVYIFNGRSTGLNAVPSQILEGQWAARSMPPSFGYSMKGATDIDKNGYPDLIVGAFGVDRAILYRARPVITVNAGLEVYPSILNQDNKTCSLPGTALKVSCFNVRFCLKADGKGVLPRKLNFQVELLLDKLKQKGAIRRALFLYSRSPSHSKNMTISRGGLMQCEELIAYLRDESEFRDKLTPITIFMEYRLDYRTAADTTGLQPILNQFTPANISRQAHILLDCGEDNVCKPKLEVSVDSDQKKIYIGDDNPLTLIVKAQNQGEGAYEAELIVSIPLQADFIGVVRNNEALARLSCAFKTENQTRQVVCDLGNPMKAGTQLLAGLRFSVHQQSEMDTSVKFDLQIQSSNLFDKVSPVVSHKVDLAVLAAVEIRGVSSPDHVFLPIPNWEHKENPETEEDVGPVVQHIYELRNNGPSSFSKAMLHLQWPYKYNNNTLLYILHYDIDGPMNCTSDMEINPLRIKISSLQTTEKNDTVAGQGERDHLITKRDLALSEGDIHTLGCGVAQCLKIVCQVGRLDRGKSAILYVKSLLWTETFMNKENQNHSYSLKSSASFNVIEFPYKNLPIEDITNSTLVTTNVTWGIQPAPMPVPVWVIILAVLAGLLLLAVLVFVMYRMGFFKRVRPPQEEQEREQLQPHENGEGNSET
T1 sequence (P05106 27-788, chain 2 of 2): as the sequence (P05106 27-788) above

αvβ3 integrin [3] = target: T1, αvβ3 integrin; assay: flow cytometry, competition with biotinylated LXW7 on αvβ3-K562 cells; ++ = IC50 1-10 µM
αvβ3 integrin [4] = target: T1, αvβ3 integrin; assay: flow cytometry, competition with biotinylated LXW7 on αvβ3-K562 cells; + = IC50 >10 µM
[5] = LXW1-8: inhibition of binding of FITC-Echistatin against αvβ3-K562, class symbols, read-out: IC50

Molecule: N=C(N)NCCC[C@@H]1NC(=O)[C@H](CCCCN)NC(=O)[C@@H](Cc2ccc(O)cc2)NC(=O)[C@H](CC(=O)O)NC(=O)CNC1=O [cyclo (RGDyK), cyclo(RGDyK)]
liver uptake, ex vivo imaging (U-87 MG xenograft): reverse
tumor uptake, ex vivo imaging (U-87 MG xenograft): reverse

Molecule: N=C(N)NCCC[C@@H]1NC(=O)[C@H](CCCCN)NC(=O)[C@@H](Cc2ccccc2)NC(=O)[C@H](CC(=O)O)NC(=O)CNC1=O [cyclo (RGDfK), cyclo(RGDfK)]
liver uptake, ex vivo imaging (U-87 MG xenograft): reverse
tumor uptake, ex vivo imaging (U-87 MG xenograft): reverse

Molecule: N=C(N)NCCC[C@@H]1NC(=O)[C@H](CCC(=O)O)NC(=O)[C@@H](Cc2ccccc2)NC(=O)[C@H](CC(=O)O)NC(=O)CNC1=O [cyclo(RGDfE)]
liver uptake, ex vivo imaging (U-87 MG xenograft): reverse
tumor uptake, ex vivo imaging (U-87 MG xenograft): reverse

Molecule: N=C(N)NCCC[C@@H]1NC(=O)[C@H](CCCCNC(=O)CCC(=O)NCCOCCOCCNC(=O)CCC(=O)N[C@@H](CCCCNC(=O)CCCC[C@@H]2SC[C@@H]3NC(=O)N[C@@H]32)C(N)=O)NC(=O)[C@@H](Cc2ccccc2)NC(=O)[C@H](CC(=O)O)NC(=O)CNC1=O [cyclo (RGDfK)-Bio, Biotinylated Cyclo(RGDfK), reference compound]
IC50 (αvβ3 integrin [1]; biotinylated peptides, read-out: IC50 (μM) Inhibit FITC-Echistatin binding with αvβ3-K562): 1.37 ± 0.2 µM

B1: LXW68 (peptide)
peptide: [dC]GRGD[dD][dW][dC]-NH2
modifications: disulfide 1-8; N-terminus assumed
SMILES: N=C(N)NCCC[C@@H]1NC(=O)CNC(=O)[C@H](N)CSSC[C@H](C(N)=O)NC(=O)[C@@H](Cc2c[nH]c3ccccc23)NC(=O)[C@@H](CC(=O)O)NC(=O)[C@H](CC(=O)O)NC(=O)CNC1=O
IC50 (αvβ3 integrin [2]): < 1000 nM

B2: LXW12 (peptide)
peptide: Ac-[dC]GRGD[dD][dV][dC]-NH2
modifications: disulfide 1-8
SMILES: CC(=O)N[C@@H]1CSSC[C@H](C(N)=O)NC(=O)[C@@H](C(C)C)NC(=O)[C@@H](CC(=O)O)NC(=O)[C@H](CC(=O)O)NC(=O)CNC(=O)[C@H](CCCNC(=N)N)NC(=O)CNC1=O
IC50 (αvβ3 integrin [2]): < 1000 nM

B3: LXW47 (peptide)
peptide: CGRGD[dD][d1Nal]C-NH2
modifications: disulfide 1-8; N-terminus assumed
SMILES: N=C(N)NCCC[C@@H]1NC(=O)CNC(=O)[C@@H](N)CSSC[C@@H](C(N)=O)NC(=O)[C@@H](Cc2cccc3ccccc23)NC(=O)[C@@H](CC(=O)O)NC(=O)[C@H](CC(=O)O)NC(=O)CNC1=O
notes: also called CGRGDd-DNal1-C
IC50 (αvβ3 integrin [3]): 1000 to 10000 nM

Molecule: {4‑(trifluoromethyl)benzoyl}-[dC]GRGD[dD][dV][dC]-NH2 (disulfide 1-8) [LXW85]
IC50 (αvβ3 integrin [2]): < 1000 nM

Molecule: {2‑methylthiazole‑4‑carbonyl}-[dC]GRGD[dD][dV][dC]-NH2 (disulfide 1-8) [LXW86]
IC50 (αvβ3 integrin [2]): < 1000 nM

Molecule: {3‑phenyl propionyl}-[dC]GRGD[dD][dV][dC]-NH2 (disulfide 1-8) [LXW80]
IC50 (αvβ3 integrin [2]): < 1000 nM

Molecule: {3,5‑dihydroxy benzoyl}-[dC]GRGD[dD][dV][dC]-NH2 (disulfide 1-8) [LXW83]
IC50 (αvβ3 integrin [2]): < 1000 nM

Molecule: nicotinyl-[dC]GRGD[dD][dV][dC]-NH2 (disulfide 1-8) [LXW92]
IC50 (αvβ3 integrin [3]): 1000 to 10000 nM

Molecule: {5‑bromo‑2‑furoyl}-[dC]GRGD[dD][dV][dC]-NH2 (disulfide 1-8) [LXW90]
IC50 (αvβ3 integrin [3]): 1000 to 10000 nM

Molecule: {2‑naphthoyl}-[dC]GRGD[dD][dV][dC]-NH2 (disulfide 1-8) [LXW89]
IC50 (αvβ3 integrin [2]): < 1000 nM

B4: LXW76 (peptide)
peptide: Isobutyryl-[dC]GRGD[dD][dV][dC]-NH2
modifications: disulfide 1-8
SMILES: CC(C)C(=O)N[C@@H]1CSSC[C@H](C(N)=O)NC(=O)[C@@H](C(C)C)NC(=O)[C@@H](CC(=O)O)NC(=O)[C@H](CC(=O)O)NC(=O)CNC(=O)[C@H](CCCNC(=N)N)NC(=O)CNC1=O
IC50 (αvβ3 integrin [2]): < 1000 nM

Molecule: {biphenyl‑4‑carbonyl}-[dC]GRGD[dD][dV][dC]-NH2 (disulfide 1-8) [LXW84]
IC50 (αvβ3 integrin [2]): < 1000 nM

B5: LXW22 (peptide)
peptide: [dC]GRGD[dD][dNMeV][dC]-NH2
modifications: disulfide 1-8; N-terminus assumed
SMILES: CC(C)[C@@H]1C(=O)N[C@@H](C(N)=O)CSSC[C@@H](N)C(=O)NCC(=O)N[C@@H](CCCNC(=N)N)C(=O)NCC(=O)N[C@@H](CC(=O)O)C(=O)N[C@H](CC(=O)O)C(=O)N1C
IC50 (αvβ3 integrin [2]): < 1000 nM

Molecule: {3‑amino propanoyl}-[dC]GRGD[dD][dV][dC]-NH2 (disulfide 1-8) [LXW56]
IC50 (αvβ3 integrin [2]): < 1000 nM

B6: LXW57 (peptide)
peptide: {Ebes(3)}-[dC]GRGD[dD][dV][dC]-NH2
modifications: disulfide 1-8
SMILES: CC(C)[C@H]1NC(=O)[C@@H](CC(=O)O)NC(=O)[C@H](CC(=O)O)NC(=O)CNC(=O)[C@H](CCCNC(=N)N)NC(=O)CNC(=O)[C@H](NC(=O)CCC(=O)NCCOCCOCCN)CSSC[C@H](C(N)=O)NC1=O
IC50 (αvβ3 integrin [2]): < 1000 nM

B7: LXW53 (peptide)
peptide: [dC]G[NMeR]GD[dD][dV][dC]-NH2
modifications: disulfide 1-8; N-terminus assumed
SMILES: CC(C)[C@H]1NC(=O)[C@@H](CC(=O)O)NC(=O)[C@H](CC(=O)O)NC(=O)CNC(=O)[C@H](CCCNC(=N)N)N(C)C(=O)CNC(=O)[C@H](N)CSSC[C@H](C(N)=O)NC1=O
IC50 (αvβ3 integrin [2]): < 1000 nM

B8: LXW23 (peptide)
peptide: [dC]GRGD[dD][d(αMeV)][dC]-NH2
modifications: disulfide 1-8; N-terminus assumed
SMILES: CC(C)[C@@]1(C)NC(=O)[C@@H](CC(=O)O)NC(=O)[C@H](CC(=O)O)NC(=O)CNC(=O)[C@H](CCCNC(=N)N)NC(=O)CNC(=O)[C@H](N)CSSC[C@H](C(N)=O)NC1=O
IC50 (αvβ3 integrin [4]): > 10000 nM

Further lines, results first:

binding affinity compared with LXW7 or the Arg parent, in words (αvβ3 integrin [1]): decreased the affinity
Molecule: CC(C)[C@H]1NC(=O)[C@@H](CC(=O)O)NC(=O)[C@H](CC(=O)O)NC(=O)CNC(=O)[C@H](CCCCN)NC(=O)CNC(=O)[C@H](N)CSSC[C@H](C(N)=O)NC1=O [LXW8, cGKGDdvc] (H-[dC]GKGD[dD][dV][dC]-NH2; disulfide 1-8)

binding affinity compared with LXW7 or the Arg parent, in words (αvβ3 integrin [1]): decreased the affinity
Molecule: NCCCC[C@@H]1NC(=O)CNC(=O)[C@H](N)CSSC[C@H](C(N)=O)NC(=O)[C@@H](CO)NC(=O)[C@@H](CC(=O)O)NC(=O)[C@H](CC(=O)O)NC(=O)CNC1=O [LXW6, cGKGDdsc] (H-[dC]GKGD[dD][dS][dC]-NH2; disulfide 1-8)

IC50 (αvβ3 integrin [1]; [5]): 1 to 10 µM
Molecule: N=C(N)NCCC[C@@H]1NC(=O)CNC(=O)[C@H](N)CSSC[C@H](C(N)=O)NC(=O)[C@@H](Cc2ccccc2)NC(=O)[C@@H](CO)NC(=O)[C@H](CC(=O)O)NC(=O)CNC1=O [LXW1, cGRGDsfc] (H-[dC]GRGD[dS][dF][dC]-NH2; disulfide 1-8)

IC50 (αvβ3 integrin [1]; [5]): < 1 µM
Molecule: N=C(N)NCCC[C@@H]1NC(=O)CNC(=O)[C@H](N)CSSC[C@H](C(N)=O)NC(=O)[C@@H](CCC(=O)O)NC(=O)[C@@H](CO)NC(=O)[C@H](CC(=O)O)NC(=O)CNC1=O [LXW3, cGRGDsec] (H-[dC]GRGD[dS][dE][dC]-NH2; disulfide 1-8)

IC50 (αvβ3 integrin [1]; [5]): 1 to 10 µM
Molecule: N=C(N)NCCC[C@@H]1NC(=O)CNC(=O)[C@H](N)CSSC[C@H](C(N)=O)NC(=O)[C@@H](Cc2ccccc2)NC(=O)[C@@H](CC(=O)O)NC(=O)[C@H](CC(=O)O)NC(=O)CNC1=O [LXW2, cGRGDdfc] (H-[dC]GRGD[dD][dF][dC]-NH2; disulfide 1-8)

binding affinity compared with LXW7 or the Arg parent, in words (αvβ3 integrin [1]): decreased the affinity
Molecule: NCCCC[C@@H]1NC(=O)CNC(=O)[C@H](N)CSSC[C@H](C(N)=O)NC(=O)[C@@H](CCC(=O)O)NC(=O)[C@@H](CO)NC(=O)[C@H](CC(=O)O)NC(=O)CNC1=O [LXW4, cGKGDsec] (H-[dC]GKGD[dS][dE][dC]-NH2; disulfide 1-8)

IC50 (αvβ3 integrin [1]; [5]): 1 to 10 µM
Molecule: N=C(N)NCCC[C@@H]1NC(=O)CNC(=O)[C@H](N)CSSC[C@H](C(N)=O)NC(=O)[C@@H](CO)NC(=O)[C@@H](CC(=O)O)NC(=O)[C@H](CC(=O)O)NC(=O)CNC1=O [LXW5, cGRGDdsc] (H-[dC]GRGD[dD][dS][dC]-NH2; disulfide 1-8)
